Reference: the supplement of paper PMC10065799, “High-throughput profiling of sequence recognition by tyrosine kinases and SH2 domains using bacterial peptide display” (eLife, 2023)

Key:
SHP2-C SH2 = experiment: SH2 binding enrichment of the phosphorylated peptide, bacterial display (enrichment ratio); higher = better substrate or ligand; peptides without Tyr show the background
Grb2 SH2 = Grb2 SH2 (UniProt P62993); experiment: as above
c-Src SH2 = experiment: as above
AncSZ = experiment: phosphorylation enrichment, bacterial display (enrichment ratio); higher = better substrate or ligand; peptides without Tyr show the background
c-Src = experiment: as above
Hck = Hck (UniProt P08631); experiment: as above
FGFR3 = FGFR3 (UniProt P22607); experiment: as above
EPHB1 = EPHB1 (UniProt P54762); experiment: as above
c-Abl (mouse) = experiment: as above
EPHB2 = EPHB2 (UniProt P29323); experiment: as above
Fer (mouse) = experiment: as above
MERTK = MERTK (UniProt Q12866); experiment: as above
Jak2 = Jak2 (UniProt O60674); experiment: as above
Fyn = Fyn (UniProt P06241); experiment: as above
Fes = Fes (UniProt P07332); experiment: as above
FGFR1 = FGFR1 (UniProt P11362); experiment: as above
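For SH2 binding enrichment of the phosphorylated peptide, bacterial display in this document: peptide library displayed on the E. coli surface as eCPX fusions, selected cells deep-sequenced, score is each peptide's frequency after selection divided by its frequency in the input.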
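For phosphorylation enrichment, bacterial display in this document: 11-residue human phosphosite peptides and single-mutation variants displayed on the E. coli surface, counted by deep sequencing, each peptide's frequency after selection divided by its frequency in the unselected input library; frequency after pTyr selection over input frequency; kinase dosed for 20-30% of maximal phosphorylation in three min.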

Chain of FGFR3 (P22607 whole entry, looked up): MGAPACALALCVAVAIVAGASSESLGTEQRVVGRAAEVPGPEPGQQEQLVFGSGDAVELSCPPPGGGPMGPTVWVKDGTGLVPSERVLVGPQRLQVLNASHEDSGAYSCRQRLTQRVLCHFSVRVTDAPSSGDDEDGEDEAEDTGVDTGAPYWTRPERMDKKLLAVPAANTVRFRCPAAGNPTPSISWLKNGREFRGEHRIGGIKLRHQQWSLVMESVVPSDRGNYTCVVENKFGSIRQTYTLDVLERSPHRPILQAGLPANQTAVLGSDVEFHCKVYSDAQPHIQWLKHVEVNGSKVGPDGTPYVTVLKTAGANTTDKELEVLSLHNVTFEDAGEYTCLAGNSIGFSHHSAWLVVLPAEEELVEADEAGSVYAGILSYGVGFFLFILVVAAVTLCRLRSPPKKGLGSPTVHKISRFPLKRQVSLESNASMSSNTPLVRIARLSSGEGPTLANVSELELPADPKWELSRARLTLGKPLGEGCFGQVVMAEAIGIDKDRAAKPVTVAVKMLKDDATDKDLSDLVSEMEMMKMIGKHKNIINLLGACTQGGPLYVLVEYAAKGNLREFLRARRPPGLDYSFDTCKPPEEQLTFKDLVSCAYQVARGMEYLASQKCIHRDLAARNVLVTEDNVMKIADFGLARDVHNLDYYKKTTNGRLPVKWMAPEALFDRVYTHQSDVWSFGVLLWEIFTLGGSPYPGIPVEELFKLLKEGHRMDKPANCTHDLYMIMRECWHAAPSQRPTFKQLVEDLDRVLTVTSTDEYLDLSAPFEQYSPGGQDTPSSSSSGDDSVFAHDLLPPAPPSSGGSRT
Chain of FGFR1 (P11362 whole entry, looked up, the tested form may be a part): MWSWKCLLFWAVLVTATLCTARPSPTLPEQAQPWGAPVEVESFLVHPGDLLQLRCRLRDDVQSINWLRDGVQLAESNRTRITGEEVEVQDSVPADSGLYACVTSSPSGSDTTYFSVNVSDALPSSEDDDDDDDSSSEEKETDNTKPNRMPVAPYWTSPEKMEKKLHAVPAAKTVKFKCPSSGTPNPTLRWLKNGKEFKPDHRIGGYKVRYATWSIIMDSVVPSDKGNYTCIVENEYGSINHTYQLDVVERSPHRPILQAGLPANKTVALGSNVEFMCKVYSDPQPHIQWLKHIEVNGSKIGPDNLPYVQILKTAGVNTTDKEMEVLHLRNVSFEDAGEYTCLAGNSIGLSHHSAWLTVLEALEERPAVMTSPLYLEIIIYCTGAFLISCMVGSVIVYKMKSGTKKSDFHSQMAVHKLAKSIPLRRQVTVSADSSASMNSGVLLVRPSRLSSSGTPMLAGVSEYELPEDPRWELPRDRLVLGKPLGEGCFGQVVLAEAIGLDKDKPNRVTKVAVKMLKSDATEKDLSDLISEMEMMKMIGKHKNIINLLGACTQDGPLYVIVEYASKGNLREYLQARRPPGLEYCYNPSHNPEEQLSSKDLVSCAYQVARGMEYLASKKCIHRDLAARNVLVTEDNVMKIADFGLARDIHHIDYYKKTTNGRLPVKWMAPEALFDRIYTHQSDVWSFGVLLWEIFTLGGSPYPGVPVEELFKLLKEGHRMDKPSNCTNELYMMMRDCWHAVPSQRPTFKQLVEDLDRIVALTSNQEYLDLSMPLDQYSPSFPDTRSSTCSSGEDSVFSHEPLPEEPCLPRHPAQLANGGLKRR
Chain of EPHB1 (P54762 whole entry, looked up): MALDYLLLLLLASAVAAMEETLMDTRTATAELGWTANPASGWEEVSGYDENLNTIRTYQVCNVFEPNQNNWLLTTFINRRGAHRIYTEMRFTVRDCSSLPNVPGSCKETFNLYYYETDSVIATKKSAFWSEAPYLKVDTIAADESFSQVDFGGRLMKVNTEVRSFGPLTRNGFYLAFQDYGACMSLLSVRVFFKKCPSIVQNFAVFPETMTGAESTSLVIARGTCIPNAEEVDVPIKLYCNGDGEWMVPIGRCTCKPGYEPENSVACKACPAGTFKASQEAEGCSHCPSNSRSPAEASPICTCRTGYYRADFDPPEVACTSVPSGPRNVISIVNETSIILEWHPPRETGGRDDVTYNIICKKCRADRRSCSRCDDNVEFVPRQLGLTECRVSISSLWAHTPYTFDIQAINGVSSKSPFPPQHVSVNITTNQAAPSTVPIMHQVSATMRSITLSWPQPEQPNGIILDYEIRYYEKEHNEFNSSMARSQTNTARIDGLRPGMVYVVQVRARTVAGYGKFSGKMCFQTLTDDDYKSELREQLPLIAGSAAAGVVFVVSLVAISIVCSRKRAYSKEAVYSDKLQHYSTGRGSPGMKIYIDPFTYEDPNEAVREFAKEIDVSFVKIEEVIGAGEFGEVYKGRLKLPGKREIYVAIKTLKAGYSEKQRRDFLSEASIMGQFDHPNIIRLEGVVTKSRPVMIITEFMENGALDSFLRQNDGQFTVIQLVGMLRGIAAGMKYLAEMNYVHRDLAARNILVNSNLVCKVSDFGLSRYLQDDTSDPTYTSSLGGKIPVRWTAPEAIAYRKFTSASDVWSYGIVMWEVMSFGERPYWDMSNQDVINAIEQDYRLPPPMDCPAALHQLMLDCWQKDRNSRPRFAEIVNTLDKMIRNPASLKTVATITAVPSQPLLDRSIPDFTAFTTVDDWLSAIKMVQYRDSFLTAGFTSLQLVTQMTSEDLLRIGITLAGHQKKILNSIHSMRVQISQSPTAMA
Chain of EPHB2 (P29323 whole entry, looked up): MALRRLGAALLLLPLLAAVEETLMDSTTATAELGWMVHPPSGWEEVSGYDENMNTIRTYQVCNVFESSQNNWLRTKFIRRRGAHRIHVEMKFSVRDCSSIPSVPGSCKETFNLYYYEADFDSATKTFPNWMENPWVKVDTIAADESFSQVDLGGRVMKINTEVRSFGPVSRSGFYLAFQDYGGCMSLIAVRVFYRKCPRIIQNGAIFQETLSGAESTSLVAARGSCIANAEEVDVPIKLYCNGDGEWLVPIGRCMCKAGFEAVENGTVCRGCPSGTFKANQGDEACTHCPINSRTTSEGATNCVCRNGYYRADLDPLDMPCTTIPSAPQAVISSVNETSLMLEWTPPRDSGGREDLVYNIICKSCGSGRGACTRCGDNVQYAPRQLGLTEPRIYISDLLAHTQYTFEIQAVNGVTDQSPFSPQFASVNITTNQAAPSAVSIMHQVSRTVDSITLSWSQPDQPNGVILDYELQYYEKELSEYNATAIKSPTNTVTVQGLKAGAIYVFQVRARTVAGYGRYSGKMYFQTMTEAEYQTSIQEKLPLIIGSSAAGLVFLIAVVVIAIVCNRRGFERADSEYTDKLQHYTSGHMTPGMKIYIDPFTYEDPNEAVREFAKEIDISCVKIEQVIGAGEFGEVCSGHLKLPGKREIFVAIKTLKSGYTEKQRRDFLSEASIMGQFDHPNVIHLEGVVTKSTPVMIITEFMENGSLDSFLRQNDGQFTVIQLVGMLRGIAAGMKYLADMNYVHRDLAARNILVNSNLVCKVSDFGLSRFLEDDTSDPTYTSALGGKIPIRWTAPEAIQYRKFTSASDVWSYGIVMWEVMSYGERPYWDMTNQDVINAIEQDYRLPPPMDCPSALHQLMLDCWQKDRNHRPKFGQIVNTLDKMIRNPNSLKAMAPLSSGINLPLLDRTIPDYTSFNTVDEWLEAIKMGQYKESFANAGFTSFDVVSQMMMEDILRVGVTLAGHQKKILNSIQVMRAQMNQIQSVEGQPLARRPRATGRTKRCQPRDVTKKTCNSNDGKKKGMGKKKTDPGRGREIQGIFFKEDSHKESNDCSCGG
Chain of MERTK (Q12866 whole entry, looked up): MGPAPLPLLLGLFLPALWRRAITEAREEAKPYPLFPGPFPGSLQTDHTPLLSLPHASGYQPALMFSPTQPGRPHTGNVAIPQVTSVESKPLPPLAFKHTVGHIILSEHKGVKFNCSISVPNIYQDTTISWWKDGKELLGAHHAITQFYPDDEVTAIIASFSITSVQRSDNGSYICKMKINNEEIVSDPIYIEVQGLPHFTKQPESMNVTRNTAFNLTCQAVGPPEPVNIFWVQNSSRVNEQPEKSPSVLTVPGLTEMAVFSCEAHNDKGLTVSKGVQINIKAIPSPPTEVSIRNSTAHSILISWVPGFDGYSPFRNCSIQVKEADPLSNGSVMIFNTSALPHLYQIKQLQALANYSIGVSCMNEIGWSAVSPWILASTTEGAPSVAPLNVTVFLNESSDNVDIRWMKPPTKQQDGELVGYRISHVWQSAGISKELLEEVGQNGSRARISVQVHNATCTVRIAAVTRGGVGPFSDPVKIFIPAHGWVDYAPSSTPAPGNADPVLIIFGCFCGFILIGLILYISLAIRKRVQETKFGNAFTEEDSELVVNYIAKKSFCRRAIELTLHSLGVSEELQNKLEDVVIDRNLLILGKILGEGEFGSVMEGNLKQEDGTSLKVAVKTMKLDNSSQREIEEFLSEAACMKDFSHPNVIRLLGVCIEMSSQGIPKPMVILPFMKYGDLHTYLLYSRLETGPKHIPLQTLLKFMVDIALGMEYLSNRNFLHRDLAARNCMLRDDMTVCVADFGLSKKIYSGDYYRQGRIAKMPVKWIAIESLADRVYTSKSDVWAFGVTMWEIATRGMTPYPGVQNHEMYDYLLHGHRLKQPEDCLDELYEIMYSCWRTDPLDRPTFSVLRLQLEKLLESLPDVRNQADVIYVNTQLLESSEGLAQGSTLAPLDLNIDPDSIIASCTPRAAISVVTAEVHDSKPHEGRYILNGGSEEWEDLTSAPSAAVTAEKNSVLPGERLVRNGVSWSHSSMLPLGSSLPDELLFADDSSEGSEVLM

Sequence | SH2 binding enrichment (SHP2-C SH2) | SH2 binding enrichment (Grb2 SH2) | SH2 binding enrichment (c-Src SH2) | phosphorylation enrichment (AncSZ) | phosphorylation enrichment (c-Src) | phosphorylation enrichment (Hck) | phosphorylation enrichment (FGFR3) | phosphorylation enrichment (EPHB1) | phosphorylation enrichment (c-Abl (mouse)) | phosphorylation enrichment (EPHB2) | phosphorylation enrichment (Fer (mouse)) | phosphorylation enrichment (MERTK) | phosphorylation enrichment (Jak2) | phosphorylation enrichment (Fyn) | phosphorylation enrichment (Fes) | phosphorylation enrichment (FGFR1)
CRWKRYQCSHD [GDPD5_Y30_R32C] | 0.583 | 0.656 | 0.494 | 0.559 | 0.448 | 0.529 | 0.562 | 0.458 | 0.41 | 0.493 | 0.425 | 0.384 | 0.612 | 0.52 | 0.666 | 0.488
WNNLDYMDSRR [GAA_Y407_D404N] | 1.43 | 0.861 | 0.527 | 0.964 | 0.412 | 0.572 | 0.636 | 0.914 | 0.581 | 0.821 | 0.498 | 0.392 | 0.749 | 0.464 | 0.907 | 0.538
VTRLRYPVCFG [ITK_Y336] | 1.01 | 1.05 | 1.06 | 0.815 | 0.467 | 0.555 | 0.877 | 0.528 | 0.756 | 0.543 | 0.487 | 0.471 | 0.825 | 0.453 | 1.07 | 0.467
KNNDGNIDYAE [MCFD2_Y135_Y135N] | 0.792 | 1.05 | 0.694 | 1.13 | 0.388 | 0.524 | 0.916 | 0.572 | 0.62 | 0.53 | 0.453 | 0.479 | 0.776 | 0.462 | 1.13 | 0.501
ASRKFYAMKIL [AKT3_Y174_G171R_YF] | 0.679 | 0.817 | 0.543 | 0.725 | 0.464 | 0.417 | 0.518 | 0.459 | 0.441 | 0.428 | 0.362 | 0.441 | 0.7 | 0.45 | 0.617 | 0.578
DPYHVYIKNRV [KCNE3_Y95] | 0.762 | 0.874 | 1.09 | 0.973 | 2.15 | 0.958 | 0.628 | 0.544 | 0.832 | 0.567 | 0.375 | 0.396 | 0.872 | 1.02 | 1.02 | 0.407
IDPYIYTPFGS [CYP3A4_Y432] | 0.868 | 0.775 | 0.713 | 1.43 | 6.67 | 5.71 | 1.66 | 0.702 | 0.865 | 0.701 | 1.9 | 3.67 | 2.38 | 7.45 | 0.956 | 2.44
PIPAAYNRYDQ [CDC73_Y290] | 0.559 | 0.75 | 0.5 | 0.71 | 0.342 | 0.507 | 0.621 | 0.433 | 0.572 | 0.571 | 0.593 | 0.263 | 0.416 | 0.736 | 0.751 | 0.541
VPHECYAKVFD [ALB_Y394_D389V] | 1.55 | 0.887 | 2.33 | 1.07 | 0.561 | 0.572 | 0.727 | 0.647 | 0.945 | 0.716 | 0.542 | 0.497 | 0.928 | 0.564 | 1.22 | 0.619
SEPSGYQDNIA [DES_Y363_A360P] | 0.92 | 0.743 | 0.476 | 1.02 | 0.47 | 0.505 | 0.708 | 0.546 | 0.753 | 0.595 | 0.525 | 0.426 | 0.953 | 0.724 | 1.05 | 0.488
TIAIRYSHSRR [ACOXL_Y260] | 0.44 | 0.608 | 0.495 | 0.746 | 0.691 | 0.576 | 0.599 | 0.363 | 0.655 | 0.622 | 0.632 | 0.648 | 0.785 | 0.644 | 0.918 | 0.536
EGVPLYESATT [DCC_Y809] | 0.489 | 0.731 | 0.57 | 1.12 | 1.14 | 2.05 | 0.775 | 4.19 | 0.831 | 4.87 | 7.75 | 0.638 | 0.988 | 1.09 | 1.07 | 0.475
FRQLQYCPSVE [CTNND2_Y508_YF] | 0.658 | 0.876 | 0.489 | 0.949 | 0.456 | 0.499 | 0.861 | 0.669 | 0.808 | 0.605 | 0.514 | 0.478 | 0.901 | 0.501 | 1.15 | 0.525
LTAEVYFPSIK [C5orf64_Y60] | 0.708 | 0.763 | 0.453 | 1.78 | 0.75 | 1.06 | 1.88 | 0.966 | 1.64 | 0.906 | 0.963 | 0.648 | 0.996 | 1.02 | 2.04 | 0.866
GAVGNYSRGLA [MGMT_Y158_G160R] | 0.632 | 0.933 | 0.39 | 0.456 | 0.383 | 0.395 | 0.465 | 0.5 | 0.401 | 0.397 | 0.358 | 0.353 | 0.38 | 0.377 | 0.453 | 0.406
HCFAAYFQQGD [GPI_Y351_R347C] | 0.929 | 0.984 | 0.673 | 1.72 | 1.23 | 0.748 | 1.28 | 1.05 | 1.98 | 0.906 | 1.08 | 1.03 | 2.05 | 0.755 | 2.51 | 0.914
NNDLCYWVPEL [IARS1_Y434] | 0.791 | 0.813 | 0.514 | 2.86 | 2.17 | 2.13 | 5.02 | 4.43 | 8.63 | 5.52 | 0.643 | 4.55 | 3.15 | 1.92 | 1.22 | 5.92
SHNKFYMLVAH [MFSD8_Y134_R139H_YF] | 1.28 | 1.25 | 0.978 | 1.42 | 0.447 | 0.695 | 0.99 | 0.865 | 0.922 | 0.668 | 0.791 | 0.583 | 1.18 | 0.554 | 1.35 | 0.652

Second part, led by results:

SH2 binding enrichment (SHP2-C SH2) | SH2 binding enrichment (Grb2 SH2) | SH2 binding enrichment (c-Src SH2) | Sequence | phosphorylation enrichment (AncSZ) | phosphorylation enrichment (c-Src) | phosphorylation enrichment (Hck) | phosphorylation enrichment (FGFR3) | phosphorylation enrichment (EPHB1) | phosphorylation enrichment (c-Abl (mouse)) | phosphorylation enrichment (EPHB2) | phosphorylation enrichment (Fer (mouse)) | phosphorylation enrichment (MERTK) | phosphorylation enrichment (Jak2) | phosphorylation enrichment (Fyn) | phosphorylation enrichment (Fes) | phosphorylation enrichment (FGFR1)
0.539 | 1.02 | 0.469 | RQEEEYKRLSE [SFSWAP_Y133] | 2.53 | 1.2 | 0.888 | 1.22 | 0.574 | 1.43 | 1.15 | 0.892 | 0.804 | 2.31 | 1.02 | 2.21 | 0.693
2.38 | 1.54 | 1.38 | ALKKPYGVLYK [RPF2_Y59] | 0.643 | 0.707 | 0.675 | 0.516 | 0.544 | 0.675 | 0.4 | 0.5 | 0.397 | 0.72 | 0.503 | 0.775 | 0.455
0.677 | 0.813 | 7.32 | HPYNSYTYPRL [PAK5_Y316_S312P] | 1.2 | 1.3 | 0.984 | 0.962 | 0.731 | 0.374 | 0.531 | 0.674 | 2.57 | 0.429 | 0.968 | 0.875 | 0.998
0.696 | 0.792 | 0.446 | VAVVDYVEPSP [TXNRD2_Y70] | 1.35 | 0.416 | 0.454 | 0.683 | 0.561 | 0.627 | 0.776 | 0.52 | 0.415 | 0.912 | 0.53 | 0.974 | 0.603
1.11 | 1.06 | 0.664 | PEIIAYQPFGK [PRKCG_Y529_YF] | 1.03 | 1.07 | 0.798 | 0.796 | 0.635 | 0.672 | 0.645 | 0.672 | 0.653 | 0.976 | 0.688 | 1.1 | 0.777
0.516 | 0.713 | 0.353 | VVSLFYGTALF [OR10C1_Y251_M246V] | 1.25 | 1.97 | 1.42 | 0.804 | 0.698 | 1.21 | 0.812 | 1.1 | 0.7 | 1.61 | 1.94 | 1.43 | 0.566
0.599 | 0.795 | 0.546 | SVVVPYKPPEV [TP53_Y220_E221K] | 0.915 | 0.596 | 0.421 | 0.448 | 0.501 | 0.584 | 0.461 | 0.471 | 0.517 | 0.761 | 0.458 | 0.792 | 0.477
2.31 | 1.37 | 4.11 | CTTIQYNYMCN [TP53_Y234_H233Q] | 0.927 | 0.441 | 0.551 | 0.692 | 0.614 | 0.493 | 0.671 | 0.445 | 0.482 | 0.751 | 0.555 | 0.955 | 0.556
0.775 | 0.967 | 0.428 | DFFDLYGGKKF [PTPN11_Y66_E69K_YF] | 1.01 | 3.49 | 7.26 | 0.616 | 0.44 | 0.69 | 0.519 | 0.499 | 0.489 | 0.974 | 3.04 | 1.02 | 0.57
0.766 | 0.906 | 0.508 | AEKPKYQINNI [TJP1_Y1602] | 0.541 | 0.363 | 0.366 | 0.427 | 0.366 | 0.548 | 0.802 | 0.368 | 0.349 | 0.704 | 0.341 | 0.682 | 0.383
0.616 | 0.941 | 0.668 | EAEPFYCSLRD [NPHS1_Y1139_R1140C_YF] | 1.54 | 2.86 | 2.54 | 0.896 | 1.19 | 0.878 | 1.27 | 2.19 | 1.67 | 1.17 | 2.66 | 1.36 | 0.668
0.749 | 1.15 | 0.721 | MTYMFYRENLR [NLRP14_Y443_V441M] | 1.33 | 2.72 | 1.97 | 0.753 | 0.948 | 0.751 | 1 | 0.456 | 0.608 | 1.1 | 1.48 | 1.19 | 0.628
0.692 | 1.1 | 0.541 | DVQNEYDSNHC [ZFYVE16_Y36_A35E] | 1.01 | 0.444 | 0.576 | 0.665 | 0.508 | 0.671 | 0.513 | 0.414 | 0.477 | 0.701 | 0.59 | 1.07 | 0.512
0.529 | 0.745 | 0.419 | WISNRSLDFSS [PRPH2_Y184_Y184S] | 0.646 | 0.321 | 0.427 | 0.583 | 0.452 | 0.578 | 0.469 | 0.583 | 0.408 | 0.713 | 0.401 | 0.765 | 0.788
0.574 | 0.728 | 0.447 | SPYAVYRFFTF [RPGRIP1_Y826] | 1.08 | 2.4 | 1.21 | 0.783 | 0.714 | 1.67 | 0.555 | 0.875 | 0.797 | 1.12 | 1.79 | 1.33 | 0.784
